{
  "source": "paper PMC8223476",
  "about": "(2021)",
  "target": "Biotinylated SARS-CoV-2 (COVID-19) S protein RBD, His, Avitag (bRBD) (SARS-CoV-2, UniProt P0DTC2, biotinylated)",
  "assay": "flow cytometry on cells",
  "data": [
    {"binder": "C119 (IgG) (antibody, V domains shown) VH: QVQLVQSGAEVKKPGASVKVSCKASGYTFTSYYMHWVRQAPGQGLEWMGIINPSGGSTSYAQKLQGRVTMTRDTSTSTVYMELSSLRSEDTAVYYCARANHETTMDTYYYYYYMDVWGKGTTVTVSS VL: QSALTQPASVSGSPGQSITISCTGTSSDVGGYKYVSWYQRHPGKAPKLMIYDVSNRPSGVSNRFSGSKSGNTASLTISGLQAEDEADYYCSSYTSSSTSVVFGGGTQLTVL", "values": [
      {"measurement": "binding result", "result": "binds"}
    ]}
  ]
}
